# Like-named read-outs stand apart in the source and are kept apart here. Where no end group is shown, it is not given here. The star is where a group is joined. For = O=C*
# T1: FLAG-tagged mouse Fpr2 (Mm_Fpr2) (mouse, UniProt O88536 1-351)
# T1 sequence (looked up): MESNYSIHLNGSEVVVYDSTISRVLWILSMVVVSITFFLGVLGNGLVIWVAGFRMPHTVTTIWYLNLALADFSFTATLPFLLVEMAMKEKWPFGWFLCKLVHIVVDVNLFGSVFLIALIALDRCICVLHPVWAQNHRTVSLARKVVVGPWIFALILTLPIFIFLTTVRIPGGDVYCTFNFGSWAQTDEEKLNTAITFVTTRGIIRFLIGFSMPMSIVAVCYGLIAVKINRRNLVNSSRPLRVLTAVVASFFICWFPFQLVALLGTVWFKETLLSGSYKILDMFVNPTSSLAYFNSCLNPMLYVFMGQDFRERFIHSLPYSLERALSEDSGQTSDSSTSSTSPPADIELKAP
# T2: FLAG-Hs_FPR1 C-terminally fused to Renilla Luciferase 8 (human, UniProt P21462 1-350)
# T2 sequence (looked up): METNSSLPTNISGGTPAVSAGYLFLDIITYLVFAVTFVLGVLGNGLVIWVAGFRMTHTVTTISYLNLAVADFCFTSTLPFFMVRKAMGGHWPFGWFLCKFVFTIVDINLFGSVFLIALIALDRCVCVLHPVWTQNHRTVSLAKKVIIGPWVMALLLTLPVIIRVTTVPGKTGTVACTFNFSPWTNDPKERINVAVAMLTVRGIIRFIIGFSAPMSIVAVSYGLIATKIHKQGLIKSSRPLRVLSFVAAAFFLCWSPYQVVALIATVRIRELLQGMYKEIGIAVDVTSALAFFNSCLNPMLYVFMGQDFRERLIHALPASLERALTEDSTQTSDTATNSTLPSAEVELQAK
# T3: FLAG-Hs_FPR2 C-terminally fused to Renilla Luciferase 8 (human, UniProt P25090 1-351)
# T3 sequence (looked up): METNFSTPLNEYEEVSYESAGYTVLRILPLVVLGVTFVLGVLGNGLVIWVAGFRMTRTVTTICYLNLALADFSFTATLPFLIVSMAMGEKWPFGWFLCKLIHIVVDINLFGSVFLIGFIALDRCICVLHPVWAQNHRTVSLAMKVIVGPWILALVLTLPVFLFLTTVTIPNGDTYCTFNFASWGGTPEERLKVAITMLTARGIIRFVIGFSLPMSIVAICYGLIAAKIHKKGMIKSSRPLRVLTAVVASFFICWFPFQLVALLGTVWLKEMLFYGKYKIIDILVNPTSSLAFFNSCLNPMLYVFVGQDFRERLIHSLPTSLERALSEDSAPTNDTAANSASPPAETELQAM
# T4: FLAG-Mm_Fpr1 C-terminally fused to Renilla Luciferase 8 (mouse, UniProt P33766 1-364)
# T4 sequence (looked up): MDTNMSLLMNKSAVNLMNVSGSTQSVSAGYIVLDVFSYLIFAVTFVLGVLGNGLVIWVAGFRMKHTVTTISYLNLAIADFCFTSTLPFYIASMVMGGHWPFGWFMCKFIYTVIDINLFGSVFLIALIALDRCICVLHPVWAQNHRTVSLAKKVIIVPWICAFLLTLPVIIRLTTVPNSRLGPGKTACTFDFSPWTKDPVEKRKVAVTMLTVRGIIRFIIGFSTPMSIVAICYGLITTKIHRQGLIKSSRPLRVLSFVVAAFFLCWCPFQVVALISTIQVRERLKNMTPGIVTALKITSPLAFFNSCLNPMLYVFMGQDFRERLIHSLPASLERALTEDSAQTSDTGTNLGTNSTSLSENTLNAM
# T5: FLAG-Mm_Fpr2 C-terminally fused to Renilla Luciferase 8 (mouse, UniProt O88536 1-351)
# T5 sequence (looked up): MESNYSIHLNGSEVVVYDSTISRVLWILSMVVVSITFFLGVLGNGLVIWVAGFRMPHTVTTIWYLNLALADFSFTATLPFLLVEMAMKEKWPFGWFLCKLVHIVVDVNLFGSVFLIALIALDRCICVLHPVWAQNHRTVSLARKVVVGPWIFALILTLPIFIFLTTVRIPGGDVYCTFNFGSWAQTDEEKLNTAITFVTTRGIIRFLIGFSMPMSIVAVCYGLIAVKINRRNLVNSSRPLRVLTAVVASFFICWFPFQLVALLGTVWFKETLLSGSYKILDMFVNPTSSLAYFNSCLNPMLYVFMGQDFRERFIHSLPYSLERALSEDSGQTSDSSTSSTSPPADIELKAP
# T6: FLAG-tagged mouse Fpr1 (Mm_Fpr1) (mouse, UniProt P33766 1-364)
# T6 sequence (looked up): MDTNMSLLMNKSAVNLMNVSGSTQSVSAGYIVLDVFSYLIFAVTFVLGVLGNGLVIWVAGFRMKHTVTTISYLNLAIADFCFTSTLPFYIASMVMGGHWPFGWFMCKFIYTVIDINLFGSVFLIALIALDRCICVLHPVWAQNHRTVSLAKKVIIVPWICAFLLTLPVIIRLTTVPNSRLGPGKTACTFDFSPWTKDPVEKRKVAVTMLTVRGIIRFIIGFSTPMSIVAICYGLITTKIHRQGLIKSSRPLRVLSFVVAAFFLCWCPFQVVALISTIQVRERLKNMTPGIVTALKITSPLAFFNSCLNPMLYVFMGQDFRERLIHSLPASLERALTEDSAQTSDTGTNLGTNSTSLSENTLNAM
# T7: FLAG-tagged human FPR1 (Hs_FPR1) (human, UniProt P21462 1-350)
# T7 sequence (looked up): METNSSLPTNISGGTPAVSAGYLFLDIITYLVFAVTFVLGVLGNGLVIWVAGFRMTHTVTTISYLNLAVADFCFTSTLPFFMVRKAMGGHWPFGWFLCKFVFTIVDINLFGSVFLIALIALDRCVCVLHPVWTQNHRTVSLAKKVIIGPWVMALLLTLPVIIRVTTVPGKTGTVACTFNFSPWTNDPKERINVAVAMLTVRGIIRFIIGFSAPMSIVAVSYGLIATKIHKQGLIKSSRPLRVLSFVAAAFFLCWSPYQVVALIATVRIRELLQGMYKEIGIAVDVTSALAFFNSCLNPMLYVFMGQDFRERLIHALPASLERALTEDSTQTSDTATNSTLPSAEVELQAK
# T8: FLAG-tagged human FPR2 (Hs_FPR2) (human, UniProt P25090 1-351)
# T8 sequence (looked up): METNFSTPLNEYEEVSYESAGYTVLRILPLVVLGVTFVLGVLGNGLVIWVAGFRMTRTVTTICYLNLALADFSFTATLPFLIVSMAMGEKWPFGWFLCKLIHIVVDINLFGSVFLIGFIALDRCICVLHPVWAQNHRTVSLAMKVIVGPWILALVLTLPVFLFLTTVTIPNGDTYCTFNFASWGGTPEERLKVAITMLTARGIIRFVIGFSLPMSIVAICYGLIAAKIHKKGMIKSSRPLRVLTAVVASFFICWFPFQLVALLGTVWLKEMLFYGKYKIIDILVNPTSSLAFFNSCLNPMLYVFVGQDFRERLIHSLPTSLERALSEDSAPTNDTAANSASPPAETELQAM
# B1: WKYMVM (peptide)
# peptide: WKYMVM
# notes: synthetic hexapeptide, all L residues; also called L-enantiomer of WKYMVm; source: bought: Tocris
# Experiments:
# [1] = molecular target: T1, FLAG-tagged mouse Fpr2 (Mm_Fpr2)
# [2] = molecular target: T1, FLAG-tagged mouse Fpr2 (Mm_Fpr2); remark: listed apart in the source
# [3] = molecular target: T2, FLAG-Hs_FPR1 C-terminally fused to …; test: cell-based or functional assay
# [4] = molecular target: T3, FLAG-Hs_FPR2 C-terminally fused to …; test: cell-based or functional assay
# [5] = molecular target: T4, FLAG-Mm_Fpr1 C-terminally fused to …; test: cell-based or functional assay
# [6] = molecular target: T5, FLAG-Mm_Fpr2 C-terminally fused to …; test: cell-based or functional assay
# [7] = molecular target: T6, FLAG-tagged mouse Fpr1 (Mm_Fpr1); test: cell-based or functional assay
# [8] = molecular target: T1, FLAG-tagged mouse Fpr2 (Mm_Fpr2); test: cell-based or functional assay
# [9] = molecular target: T7, FLAG-tagged human FPR1 (Hs_FPR1); test: cell-based or functional assay
# [10] = molecular target: T8, FLAG-tagged human FPR2 (Hs_FPR2); test: cell-based or functional assay
# [11] = molecular target: T2, FLAG-Hs_FPR1 C-terminally fused to …; test: cell-based or functional assay; remark: listed apart in the source
# [12] = molecular target: T3, FLAG-Hs_FPR2 C-terminally fused to …; test: cell-based or functional assay; remark: listed apart in the source
# [13] = molecular target: T4, FLAG-Mm_Fpr1 C-terminally fused to …; test: cell-based or functional assay; remark: listed apart in the source
# [14] = molecular target: T5, FLAG-Mm_Fpr2 C-terminally fused to …; test: cell-based or functional assay; remark: listed apart in the source
# [15] = molecular target: T6, FLAG-tagged mouse Fpr1 (Mm_Fpr1); test: cell-based or functional assay; remark: listed apart in the source
# [16] = molecular target: T1, FLAG-tagged mouse Fpr2 (Mm_Fpr2); test: cell-based or functional assay; remark: listed apart in the source
# [17] = molecular target: T7, FLAG-tagged human FPR1 (Hs_FPR1); test: cell-based or functional assay; remark: listed apart in the source
# [18] = molecular target: T8, FLAG-tagged human FPR2 (Hs_FPR2); test: cell-based or functional assay; remark: listed apart in the source
# [19] = molecular target: T6, FLAG-tagged mouse Fpr1 (Mm_Fpr1); test: flow cytometry on cells; competition binding: HEK293 cells stably expressing the receptor, lifted in PBS, on ice 90 min with 10 nM K(5/6-FAM)-WKYMVm and increasing unlabeled ligand; mean fluorescence of 5000 cells as % of that without competitor; One site-Fit logIC50
# [20] = molecular target: T1, FLAG-tagged mouse Fpr2 (Mm_Fpr2); test: as above
# [21] = molecular target: T7, FLAG-tagged human FPR1 (Hs_FPR1); test: as above
# [22] = molecular target: T8, FLAG-tagged human FPR2 (Hs_FPR2); test: as above
binder,measurement,setting,value
For-MTPMRKINPLMKLIN [MCT-2 (Formyl-… from Cytochrome b)],ERK1/2 phosphorylation (Western blot): Emax (% of 1 μM WKYMVm),[1],169%
same,ERK1/2 phosphorylation (Western blot): Log EC50 (M),[1],-6.96 log M
same,receptor internalization (flow cytometry): Emax (% of 1 μM WKYMVm),[2],43.9%
same,receptor internalization (flow cytometry): Log EC50 (M),[2],-8.24 log M
B1,BRET of receptor-RLuc8 with Venus-mGsi: Emax (% of 1 μM WKYMVm),[3],44.1%
same,BRET of receptor-RLuc8 with Venus-mGsi: Emax (% of 1 μM WKYMVm),[4],79.2%
same,BRET of receptor-RLuc8 with Venus-mGsi: Emax (% of 1 μM WKYMVm),[5],37.5%
same,BRET of receptor-RLuc8 with Venus-mGsi: Log EC50 (M),[5],-5.68 log M
same,BRET of receptor-RLuc8 with Venus-mGsi: Emax (% of 1 μM WKYMVm),[6],87.9%
same,BRET of receptor-RLuc8 with Venus-mGsi: Log EC50 (M),[6],-6.49 log M
same,ERK1/2 phosphorylation (Western blot): Emax (% of 1 μM WKYMVm),[7],118%
same,ERK1/2 phosphorylation (Western blot): Log EC50 (M),[7],-7.08 log M
same,ERK1/2 phosphorylation (Western blot): Emax (% of 1 μM WKYMVm),[8],128%
same,ERK1/2 phosphorylation (Western blot): Log EC50 (M),[8],-7.91 log M
same,ERK1/2 phosphorylation (Western blot): Emax (% of 1 μM WKYMVm),[9],141%
same,ERK1/2 phosphorylation (Western blot): Emax (% of 1 μM WKYMVm),[10],125%
same,BRET of receptor-RLuc8 with Arrestin 3-YFP: Emax (% of 1 μM WKYMVm),[11],75%
same,BRET of receptor-RLuc8 with Arrestin 3-YFP: Emax (% of 1 μM WKYMVm),[12],94.8%
same,BRET of receptor-RLuc8 with Arrestin 3-YFP: Emax (% of 1 μM WKYMVm),[13],83.1%
same,BRET of receptor-RLuc8 with Arrestin 3-YFP: Log EC50 (M),[13],-5.56 log M
same,BRET of receptor-RLuc8 with Arrestin 3-YFP: Emax (% of 1 μM WKYMVm),[14],94.3%
same,BRET of receptor-RLuc8 with Arrestin 3-YFP: Log EC50 (M),[14],-6.59 log M
same,receptor internalization (flow cytometry): Emax (% of 1 μM WKYMVm),[15],99.4%
same,receptor internalization (flow cytometry): Log EC50 (M),[15],-6.29 log M
same,receptor internalization (flow cytometry): Emax (% of 1 μM WKYMVm),[16],75.6%
same,receptor internalization (flow cytometry): Log EC50 (M),[16],-6.96 log M
same,receptor internalization (flow cytometry): Emax (% of 1 μM WKYMVm),[17],101%
same,receptor internalization (flow cytometry): Emax (% of 1 μM WKYMVm),[18],82.3%
same,Log IC50,[19],-5.55 log M
same,Max Comp (%),[19],85.4%
same,Log IC50,[20],-6.23 log M
same,Max Comp (%),[20],100%
same,Max Comp (%),[21],94.9%
same,Max Comp (%),[22],99.8%

# From publication PMC12881670, “Investigation into ligand selectivity and bias at the formyl peptide receptor family” (The Journal of Pharmacology and Experimental Therapeutics, 2025)
